Results on four molecules are retold here after patent publication US20200079833A1 (AstraZeneca / MedImmune, published 2020).

Starred links: 1 amine or outer side, 2 acyl side, 3 side chain; linkers in the order of their positions; H or OH if unused. Non-standard residues stand in square brackets, D forms with d. Groups on a side chain read outwards from the residue. No end group written: not given here. *: point of attachment. γGlu = O=C(O)[C@H](CCC(=O)[*:2])N[*:1]; Palmitoyl = CCCCCCCCCCCCCCCC(=O)*; αMeF = C[C@](N)(Cc1ccccc1)C(=O)O; αMeK = C[C@](N)(CCCCN)C(=O)O; αMeS = C[C@](N)(CO)C(=O)O; Aib = CC(C)(N)C(=O)O

Common to all, as to test: cell-based or functional assay
In one assay the target is GLP-1 receptor (GLP-1R) (human, UniProt P43220 24-463).
In the next assay the target is glucagon receptor (GCGR) (human, UniProt P47871 26-477).
The target in assay [1] is T1, glucose-dependent insulinotropic peptide (gastric inhibitory polypeptide) receptor (GIPR) (human, UniProt P48546 22-466).
T1 sequence (looked up): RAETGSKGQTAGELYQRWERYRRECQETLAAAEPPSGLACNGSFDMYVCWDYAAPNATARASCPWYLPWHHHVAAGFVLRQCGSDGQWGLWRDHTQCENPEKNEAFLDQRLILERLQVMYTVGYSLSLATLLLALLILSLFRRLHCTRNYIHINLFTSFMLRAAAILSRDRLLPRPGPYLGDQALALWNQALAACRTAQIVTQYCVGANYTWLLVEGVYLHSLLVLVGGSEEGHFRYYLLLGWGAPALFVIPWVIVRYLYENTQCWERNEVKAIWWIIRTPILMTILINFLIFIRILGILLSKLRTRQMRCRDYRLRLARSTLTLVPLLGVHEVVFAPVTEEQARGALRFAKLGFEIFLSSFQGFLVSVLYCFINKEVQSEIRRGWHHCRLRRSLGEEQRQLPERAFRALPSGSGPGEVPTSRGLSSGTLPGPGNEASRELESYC

Chain of glucagon receptor (GCGR) (P47871 26-477): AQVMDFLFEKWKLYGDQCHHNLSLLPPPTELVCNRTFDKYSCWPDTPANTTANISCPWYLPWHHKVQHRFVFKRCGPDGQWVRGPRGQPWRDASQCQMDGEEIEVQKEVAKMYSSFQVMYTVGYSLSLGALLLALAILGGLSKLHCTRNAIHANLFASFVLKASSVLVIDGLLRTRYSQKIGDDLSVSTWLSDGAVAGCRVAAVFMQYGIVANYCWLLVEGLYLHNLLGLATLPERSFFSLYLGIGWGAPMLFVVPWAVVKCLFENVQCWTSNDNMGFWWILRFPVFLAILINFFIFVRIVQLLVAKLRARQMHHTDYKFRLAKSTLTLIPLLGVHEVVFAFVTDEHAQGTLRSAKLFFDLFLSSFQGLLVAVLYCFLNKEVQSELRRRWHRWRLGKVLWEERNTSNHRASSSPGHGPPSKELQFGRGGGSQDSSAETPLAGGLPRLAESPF

B1: SEQ ID NO 83 (peptide)
peptide: H[Aib]EGS[αMeF]TSDV[αMeS]S[αMeF]LEGK([γGlu-Palmitoyl])AA[αMeK]E[αMeF]IA[αMeF]VV[αMeK]GG-NH2
modifications: N-terminus assumed
SMILES: CCCCCCCCCCCCCCCC(=O)N[C@@H](CCC(=O)NCCCC[C@H](NC(=O)CNC(=O)[C@H](CCC(=O)O)NC(=O)[C@H](CC(C)C)NC(=O)[C@](C)(Cc1ccccc1)NC(=O)[C@H](CO)NC(=O)[C@](C)(CO)NC(=O)[C@@H](NC(=O)[C@H](CC(=O)O)NC(=O)[C@H](CO)NC(=O)[C@@H](NC(=O)[C@](C)(Cc1ccccc1)NC(=O)[C@H](CO)NC(=O)CNC(=O)[C@H](CCC(=O)O)NC(=O)C(C)(C)NC(=O)[C@@H](N)Cc1c[nH]cn1)[C@@H](C)O)C(C)C)C(=O)N[C@@H](C)C(=O)N[C@@H](C)C(=O)N[C@@](C)(CCCCN)C(=O)N[C@@H](CCC(=O)O)C(=O)N[C@@](C)(Cc1ccccc1)C(=O)N[C@H](C(=O)N[C@@H](C)C(=O)N[C@@](C)(Cc1ccccc1)C(=O)N[C@H](C(=O)N[C@H](C(=O)N[C@@](C)(CCCCN)C(=O)NCC(=O)NCC(N)=O)C(C)C)C(C)C)[C@@H](C)CC)C(=O)O
Take B1: in the assay with GLP-1 receptor (GLP-1R), the “cAMP Mean pM GLP-1R” value amounted to 3.6 pM, the “cAMP Primary assay EC50 GLP-1R n1” value is 0.0032 nM and the “cAMP Primary assay EC50 GLP-1R n2” value is 0.004 nM. Further, in the assay with glucagon receptor (GCGR), the “cAMP Primary assay EC50 Gluc-R” value amounted to 28 nM and the “cAMP Primary assay EC50 Gluc-R (2nd)” value was found to be 28 nM. In assay [1], the “cAMP Primary assay EC50 GIP-R” value stood at 28 nM and the “cAMP Primary assay EC50 GIP-R (2nd)” value amounted to 28 nM.

B2: SEQ ID NO 82 (peptide)
peptide: H[Aib]EGS[αMeF]TSDV[αMeS]S[αMeF]LEGEK([γGlu-Palmitoyl])A[αMeK]E[αMeF]IA[αMeF]VV[αMeK]GG-NH2
modifications: N-terminus assumed
SMILES: CCCCCCCCCCCCCCCC(=O)N[C@@H](CCC(=O)NCCCC[C@H](NC(=O)[C@H](CCC(=O)O)NC(=O)CNC(=O)[C@H](CCC(=O)O)NC(=O)[C@H](CC(C)C)NC(=O)[C@](C)(Cc1ccccc1)NC(=O)[C@H](CO)NC(=O)[C@](C)(CO)NC(=O)[C@@H](NC(=O)[C@H](CC(=O)O)NC(=O)[C@H](CO)NC(=O)[C@@H](NC(=O)[C@](C)(Cc1ccccc1)NC(=O)[C@H](CO)NC(=O)CNC(=O)[C@H](CCC(=O)O)NC(=O)C(C)(C)NC(=O)[C@@H](N)Cc1c[nH]cn1)[C@@H](C)O)C(C)C)C(=O)N[C@@H](C)C(=O)N[C@@](C)(CCCCN)C(=O)N[C@@H](CCC(=O)O)C(=O)N[C@@](C)(Cc1ccccc1)C(=O)N[C@H](C(=O)N[C@@H](C)C(=O)N[C@@](C)(Cc1ccccc1)C(=O)N[C@H](C(=O)N[C@H](C(=O)N[C@@](C)(CCCCN)C(=O)NCC(=O)NCC(N)=O)C(C)C)C(C)C)[C@@H](C)CC)C(=O)O
For the molecule B2, in the assay with GLP-1 receptor (GLP-1R), the “cAMP Mean pM GLP-1R” value stood at 2.5 pM, the “cAMP Primary assay EC50 GLP-1R n1” value came out at 0.003 nM and the “cAMP Primary assay EC50 GLP-1R n2” value was 0.002 nM. Also, in the assay with glucagon receptor (GCGR), the “cAMP Primary assay EC50 Gluc-R” value amounted to 27 nM and the “cAMP Primary assay EC50 Gluc-R (2nd)” value was 27 nM. In assay [1], the “cAMP Primary assay EC50 GIP-R” value came to 27 nM and the “cAMP Primary assay EC50 GIP-R (2nd)” value turned out to be 27 nM.

B3: SEQ ID NO 84 (peptide)
peptide: H[Aib]EGS[αMeF]TSDV[αMeS]S[αMeF]LEK([γGlu-Palmitoyl])EAA[αMeK]E[αMeF]IA[αMeF]VV[αMeK]GG-NH2
modifications: N-terminus assumed
SMILES: CCCCCCCCCCCCCCCC(=O)N[C@@H](CCC(=O)NCCCC[C@H](NC(=O)[C@H](CCC(=O)O)NC(=O)[C@H](CC(C)C)NC(=O)[C@](C)(Cc1ccccc1)NC(=O)[C@H](CO)NC(=O)[C@](C)(CO)NC(=O)[C@@H](NC(=O)[C@H](CC(=O)O)NC(=O)[C@H](CO)NC(=O)[C@@H](NC(=O)[C@](C)(Cc1ccccc1)NC(=O)[C@H](CO)NC(=O)CNC(=O)[C@H](CCC(=O)O)NC(=O)C(C)(C)NC(=O)[C@@H](N)Cc1c[nH]cn1)[C@@H](C)O)C(C)C)C(=O)N[C@@H](CCC(=O)O)C(=O)N[C@@H](C)C(=O)N[C@@H](C)C(=O)N[C@@](C)(CCCCN)C(=O)N[C@@H](CCC(=O)O)C(=O)N[C@@](C)(Cc1ccccc1)C(=O)N[C@H](C(=O)N[C@@H](C)C(=O)N[C@@](C)(Cc1ccccc1)C(=O)N[C@H](C(=O)N[C@H](C(=O)N[C@@](C)(CCCCN)C(=O)NCC(=O)NCC(N)=O)C(C)C)C(C)C)[C@@H](C)CC)C(=O)O
Consider B3, for which, in the assay with GLP-1 receptor (GLP-1R), the “cAMP Mean pM GLP-1R” value amounted to 8 pM, the “cAMP Primary assay EC50 GLP-1R n1” value came to 0.0078 nM and the “cAMP Primary assay EC50 GLP-1R n2” value is 0.0081 nM. Further, in the assay with glucagon receptor (GCGR), the “cAMP Primary assay EC50 Gluc-R” value was determined as 27 nM and the “cAMP Primary assay EC50 Gluc-R (2nd)” value was found to be 27 nM. Further, in assay [1], the “cAMP Primary assay EC50 GIP-R” value was determined as 27 nM and the “cAMP Primary assay EC50 GIP-R (2nd)” value was 27 nM.

B4: SEQ ID NO 85 (peptide)
peptide: H[Aib]EGS[αMeF]TSDV[αMeS]S[αMeF]LK([γGlu-Palmitoyl])GEAA[αMeK]E[αMeF]IA[αMeF]VV[αMeK]GG-NH2
modifications: N-terminus assumed
SMILES: CCCCCCCCCCCCCCCC(=O)N[C@@H](CCC(=O)NCCCC[C@H](NC(=O)[C@H](CC(C)C)NC(=O)[C@](C)(Cc1ccccc1)NC(=O)[C@H](CO)NC(=O)[C@](C)(CO)NC(=O)[C@@H](NC(=O)[C@H](CC(=O)O)NC(=O)[C@H](CO)NC(=O)[C@@H](NC(=O)[C@](C)(Cc1ccccc1)NC(=O)[C@H](CO)NC(=O)CNC(=O)[C@H](CCC(=O)O)NC(=O)C(C)(C)NC(=O)[C@@H](N)Cc1c[nH]cn1)[C@@H](C)O)C(C)C)C(=O)NCC(=O)N[C@@H](CCC(=O)O)C(=O)N[C@@H](C)C(=O)N[C@@H](C)C(=O)N[C@@](C)(CCCCN)C(=O)N[C@@H](CCC(=O)O)C(=O)N[C@@](C)(Cc1ccccc1)C(=O)N[C@H](C(=O)N[C@@H](C)C(=O)N[C@@](C)(Cc1ccccc1)C(=O)N[C@H](C(=O)N[C@H](C(=O)N[C@@](C)(CCCCN)C(=O)NCC(=O)NCC(N)=O)C(C)C)C(C)C)[C@@H](C)CC)C(=O)O
Regarding B4, in the assay with GLP-1 receptor (GLP-1R), the “cAMP Mean pM GLP-1R” value was 101 pM, the “cAMP Primary assay EC50 GLP-1R n1” value turned out to be 0.066 nM and the “cAMP Primary assay EC50 GLP-1R n2” value is 0.14 nM. In addition, in the assay with glucagon receptor (GCGR), the “cAMP Primary assay EC50 Gluc-R” value came to 28 nM and the “cAMP Primary assay EC50 Gluc-R (2nd)” value was 28 nM. Further, in assay [1], the “cAMP Primary assay EC50 GIP-R” value worked out at 28 nM and the “cAMP Primary assay EC50 GIP-R (2nd)” value was found to be 28 nM.
